# Assay results as given in patent US20100260668A1 (published 2010).
# “And” between values parts separate entries of the source, which are not always exact repeats. Equal values may be shown once.
# B1: DVD033 (bispecific antibody, human IgG1, kappa)
# heavy: not shown
# light: DVVMTQSPLSLPVTPGEPASISCRSSQSLLHSNGFNYVDWYLQKPGQSPHLLIYFGSYRASGVPDRFSGSGSGTDFTLKISRVEAEDVGVYYCMQALQTPPWTFGQGTKVEIRRTVAAPDIQMTQSPSSVSASVGDRVTITCRASQGISSWLAWYQQKPGKAPNLLIYEASSLQSGVPSRFGGSGSGTDFTLTISSLQPEDFATYYCQQANGFPWTFGQGTKVEIKRTVAAPSVFIFPPSDEQLKSGTASVVCLLNNFYPREAKVQWKVDNALQSGNSQESVTEQDSKDSTYSLSSTLTLSKADYEKHKVYACEVTHQGLSSPVTKSFNRGEC
# notes: N-terminal VD RON, C-terminal VD HGF; also called DVD033H; DVD033L
# B2: DVD043 (bispecific antibody, human IgG1, kappa)
# heavy: not shown
# light: DIQMTQSPSSLSASVGDRVTITCSASQDISNYLNWYQQKPGKAPKVLIYFTSSLHSGVPSRFSGSGSGTDFTLTISSLQPEDFATYYCQQYSTVPWTFGQGTKVEIKRTVAAPDIQMTQSPSSLSASVGDRVTITCRASQDVSTAVAWYQQKPGKAPKLLIYSASFLYSGVPSRFSGSGSGTDFTLTISSLQPEDFATTYYCQQSYTGTVTFGQGTKVEIKRTVAAPSVFIFPPSDEQLKSGTASVVCLLNNFYPREAKVQWKVDNALQSGNSQESVTEQDSKDSTYSLSSTLTLSKADYEKHKVYACEVTHQGLSSPVTKSFNRGEC
# notes: N-terminal VD VEGF, C-terminal VD DLL4; also called DVD043H; DVD043L
# B3: DVD043 (bispecific antibody, human IgG1, kappa)
# heavy: not shown
# light: DIQMTQSPSSLSASVGDRVTITCSASQDISNYLNWYQQKPGKAPKVLIYFTSSLHSGVPSRFSGSGSGTDFTLTISSLQPEDFATYYCQQYSTVPWTFGQGTKVEIKRTVAAPDIQMTQSPSSLSASVGDRVTITCRASQDVSTAVAWYQQKPGKAPKLLIYSASFLYSGVPSRFSGSGSGTDFTLTISSLQPEDFATTYYCQQSYTGTVTFGQGTKVEIKRTVAAPSVFIFPPSDEQLKSGTASVVCLLNNFYPREAKVQWKVDNALQSGNSQESVTEQDSKDSTYSLSSTLTLSKADYEKHKVYACEVTHQGLSSPVTKSFNRGEC
# notes: DVD-Ig; HC short, LC short linker; also called DVD043H; DVD043L
# B4: AB063 (antibody, human IgG1, kappa, V domains shown)
# VH: EVQLVESGGGLVQPGGSLRLSCAASGFTFSIYSMNWVRQAPGKGLEWVSYISSSSSTIYYADSVKGRFTISRDNAKNSLYLQMNSLRDEDTAVYYCARDRGDFDAFDIWGQGTMVTVSS
# VL: DIQMTQSPSSLSASVGDRVTITCQASQDITNYLNWYQQKPGKAPKLLIYDASNLETGVPSRFSGSGSGTDFTFTISSLQPEDIATYNCQQCENFPITFGQGTRLEIKR
# notes: also called AB063VH; AB063VL
# B5: DVD446 (bispecific antibody, human IgG1, kappa)
# heavy: not shown
# light: DIQMTQSPSSLSASVGDRVTITCRASQVIRRSLAWYQQKPGKAPKLLIYAASNLASGVPSRFSGSGSGTDFTLTISSLQPEDFATYYCQQSNTSPLTFGQGTKVEIKRTVAAPDIVMTQSPDSLAVSLGERATISCRASESVDNYGISFMKWFQQKPGQPPKLLIYAASNQGSGVPDRFSGSGSGTDFTLTISSLQAEDVAVYYCQQSKEVPWTFGGGTKVEIKRTVAAPSVFIFPPSDEQLKSGTASVVCLLNNFYPREAKVQWKVDNALQSGNSQESVTEQDSKDSTYSLSSTLTLSKADYEKHKVYACEVTHQGLSSPVTKSFNRGEC
# notes: DVD-Ig; outer AB071 (VEGF), inner AB069 (DLL4); HC short, LC short linker; also called DVD446H; DVD446L
# B6: AB015 (antibody, human IgG1, kappa)
# heavy: not shown
# light: DIQMTQSPSSLSASVGDRVTITCRASQDVSTAVAWYQQKPGKAPKLLIYSASFLYSGVPSRFSGSGSGTDFTLTISSLQPEDFATTYYCQQSYTGTVTFGQGTKVEIKRTVAAPSVFIFPPSDEQLKSGTASVVCLLNNFYPREAKVQWKVDNALQSGNSQESVTEQDSKDSTYSLSSTLTLSKADYEKHKVYACEVTHQGLSSPVTKSFNRGEC
# B7: DVD516 (bispecific antibody, human IgG1, lambda)
# heavy: not shown
# light: DIQMTQSPSSLSASVGDRVTITCRASQVIRRSLAWYQQKPGKAPKLLIYAASNLASGVPSRFSGSGSGTDFTLTISSLQPEDFATYYCQQSNTSPLTFGQGTKVEIKRTVAAPQAVVTQESALTTSPGETVTLTCRSSTGAVTTSNYANWVQEKPDHLFTGLIGGTNNRAPGVPARFSGSLIGDKAALTITGAQTEDEAIYFCALWYSNHWVFGGGTKLTVLGQPKAAPSVTLFPPSSEELQANKATLVCLISDFYPGAVTVAWKADSSPVKAGVETTTPSKQSNNKYAASSYLSLTPEQWKSHRSYSCQVTHEGSTVEKTVAPTECS
# notes: DVD-Ig; outer AB071 (VEGF), inner AB073 (DLL4); HC short, LC short linker; also called DVD516H; DVD516L
# B8: DVD492 (bispecific antibody, human IgG1, kappa)
# heavy: not shown
# light: DIQMTQSPSSLSASVGDRVTITCRASQVIRRSLAWYQQKPGKAPKLLIYAASNLASGVPSRFSGSGSGTDFTLTISSLQPEDFATYYCQQSNTSPLTFGQGTKVEIKRTVAAPDIQMTQSSSYLSVSLGGRVTITCKASDHINNWLAWYQQKPGNAPRLLISGATSLETGVPSRFSGSGSGKDYTLSITSLQTEDVATYYCQQYWSIPLTFGAGTKLELKRTVAAPSVFIFPPSDEQLKSGTASVVCLLNNFYPREAKVQWKVDNALQSGNSQESVTEQDSKDSTYSLSSTLTLSKADYEKHKVYACEVTHQGLSSPVTKSFNRGEC
# notes: DVD-Ig; outer AB071 (VEGF), inner AB072 (DLL4); HC short, LC short linker; also called DVD492H; DVD492L
# B9: DVD258 (bispecific antibody, human IgG1, kappa)
# heavy: not shown
# light: DIVLTQSPDSLAVSLGERVTMNCKSSQSLLNSGMRKSFLAWYQQKPGQSPKLLIYWASTRESGVPDRFTGSGSGTDFTLTISSVQAEDVAVYYCKQSYHLFTFGSGTKLEIKRTVAAPDIQMTQSPSSLSASVGDRVTITCRASQDVSTAVAWYQQKPGKAPKLLIYSASFLYSGVPSRFSGSGSGTDFTLTISSLQPEDFATTYYCQQSYTGTVTFGQGTKVEIKRTVAAPSVFIFPPSDEQLKSGTASVVCLLNNFYPREAKVQWKVDNALQSGNSQESVTEQDSKDSTYSLSSTLTLSKADYEKHKVYACEVTHQGLSSPVTKSFNRGEC
# notes: N-terminal VD PlGF, C-terminal VD DLL4; also called VD258H; VD258L
# B10: AB062 (antibody, human IgG1, kappa, V domains shown)
# VH: QVQLQQWGAGLLKPSETLSLTCAVYGGSFSGYYWSWIRQPPGKGLEWIGEINHSGSTNYNPSLKSRVTISVETSKNQFSLKLSSVTAADTAVYYCARDKWTWYFDLWGRGTLVTVSS
# VL: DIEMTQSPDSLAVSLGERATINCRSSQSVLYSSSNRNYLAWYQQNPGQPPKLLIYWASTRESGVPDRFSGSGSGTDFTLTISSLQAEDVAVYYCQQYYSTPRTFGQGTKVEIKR
# notes: also called AB062VH; AB062VL
# B11: DVD468 (bispecific antibody, human IgG1, kappa)
# heavy: not shown
# light: DIQMTQSPSSLSASVGDRVTITCRASQVIRRSLAWYQQKPGKAPKLLIYAASNLASGVPSRFSGSGSGTDFTLTISSLQPEDFATYYCQQSNTSPLTFGQGTKVEIKRTVAAPDIQMTQSPSSLSASVGDRVTITCRASQDVSTAVAWYQQKPGKAPKLLIYSASFLYSGVPSRFSGSGSGTDFTLTISSLQPEDFATTYYCQQSYTGTVTFGQGTKVEIKRTVAAPSVFIFPPSDEQLKSGTASVVCLLNNFYPREAKVQWKVDNALQSGNSQESVTEQDSKDSTYSLSSTLTLSKADYEKHKVYACEVTHQGLSSPVTKSFNRGEC
# notes: DVD-Ig; outer AB071 (VEGF), inner AB015 (DLL4); HC short, LC short linker; also called DVD468H; DVD468L
# B12: DVD041 (bispecific antibody, human IgG1, lambda)
# heavy: not shown
# light: DIQMTQSPSSLSASVGDRVTITCSASQDISNYLNWYQQKPGKAPKVLIYFTSSLHSGVPSRFSGSGSGTDFTLTISSLQPEDFATYYCQQYSTVPWTFGQGTKVEIKRTVAAPQSVLTQPPSVSAAPGQKVTISCSGSSSNIENNHVSWYQQLPGTAPKLLIYDNNKRPSGIPDRFSGSKSGTSATLGITGLQTGDEADYYCETWDTSLSAGRVFGGGTKLTVLGQPKAAPSVTLFPPSSEELQANKATLVCLISDFYPGAVTVAWKADSSPVKAGVETTTPSKQSNNKYAASSYLSLTPEQWKSHRSYSCQVTHEGSTVEKTVAPTECS
# notes: N-terminal VD VEGF, C-terminal VD IGF1,2; also called DVD041H; DVD041L
# B13: AB005 (antibody, human IgG1, kappa, V domains shown)
# VH: EVQLVQSGGGLVKPGGSLRLSCAASGFTFSSYAMHWVRQAPGKGLEWVAVISYDGSNKYYADSVKGRFTISRDNSKNTLYLQMNSLRAEDTAVYYCARFSGWPNNYYYYGMDVWGQGTTVTVSS
# VL: DVVMTQSPLSLPVTPGEPASISCRSSQSLLHSNGFNYVDWYLQKPGQSPHLLIYFGSYRASGVPDRFSGSGSGTDFTLKISRVEAEDVGVYYCMQALQTPPWTFGQGTKVEIRR
# B14: DVD512 (bispecific antibody, human IgG1, lambda, L234A L235A)
# heavy: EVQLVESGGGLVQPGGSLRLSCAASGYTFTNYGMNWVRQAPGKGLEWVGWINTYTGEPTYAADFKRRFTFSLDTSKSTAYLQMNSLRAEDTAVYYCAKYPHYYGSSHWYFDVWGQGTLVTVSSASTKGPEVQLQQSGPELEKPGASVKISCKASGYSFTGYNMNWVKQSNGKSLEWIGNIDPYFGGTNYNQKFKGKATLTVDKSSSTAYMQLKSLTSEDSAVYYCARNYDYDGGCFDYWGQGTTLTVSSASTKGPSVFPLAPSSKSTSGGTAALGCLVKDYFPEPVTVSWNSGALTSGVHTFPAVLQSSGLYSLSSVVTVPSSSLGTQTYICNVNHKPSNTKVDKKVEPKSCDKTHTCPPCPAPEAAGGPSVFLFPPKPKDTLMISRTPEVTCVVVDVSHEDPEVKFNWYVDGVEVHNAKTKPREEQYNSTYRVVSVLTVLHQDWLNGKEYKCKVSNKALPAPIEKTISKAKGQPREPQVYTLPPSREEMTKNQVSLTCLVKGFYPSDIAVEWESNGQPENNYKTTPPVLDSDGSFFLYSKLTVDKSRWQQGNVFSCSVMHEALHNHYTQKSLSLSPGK
# light: DIQMTQSPSSLSASVGDRVTITCSASQDISNYLNWYQQKPGKAPKVLIYFTSSLHSGVPSRFSGSGSGTDFTLTISSLQPEDFATYYCQQYSTVPWTFGQGTKVEIKRTVAAPQAVVTQESALTTSPGETVTLTCRSSTGAVTTSNYANWVQEKPDHLFTGLIGGTNNRAPGVPARFSGSLIGDKAALTITGAQTEDEAIYFCALWYSNHWVFGGGTKLTVLGQPKAAPSVTLFPPSSEELQANKATLVCLISDFYPGAVTVAWKADSSPVKAGVETTTPSKQSNNKYAASSYLSLTPEQWKSHRSYSCQVTHEGSTVEKTVAPTECS
# notes: DVD-Ig; HC short, LC short linker; also called DVD512H; DVD512L
# B15: AB047 (antibody, human IgG1, kappa, V domains shown)
# VH: QVQLQQSGAELVKPGASVKISCKASGYTFTDYYINWVKLAPGQGLEWIGWIYPGSGNTKYNEKFKGKATLTIDTSSSTAYMQLSSLTSEDTAVYFCVRDSPFFDYWGQGTLLTVSS
# VL: DIVLTQSPDSLAVSLGERVTMNCKSSQSLLNSGMRKSFLAWYQQKPGQSPKLLIYWASTRESGVPDRFTGSGSGTDFTLTISSVQAEDVAVYYCKQSYHLFTFGSGTKLEIKR
# Key:
# [1] = target: T1, HGF (UniProt P14210 32-728); assay: Biacore SPR
# T1 construct: Bought reagent
# Procedure: (§1) The BIACORE assay (Biacore, Inc, Piscataway, N.J.) determines the affinity of antibodies or DVD-Ig with kinetic measurements of on-rate and off-rate constants. Binding of antibodies or DVD-Ig to a target antigen (for example, a purified recombinant target antigen) is determined by surface plasmon resonance-based measurements with a Biacore® 1000 or 3000 instrument (Biacore® AB, Uppsala, Sweden) using running HBS-EP (10 mM HEPES [pH 7.4], 150 mM NaCl, 3 mM EDTA, and 0.005% surfactant P20) at 25° C. […] For example, approximately 5000 RU of goat anti-mouse IgG, (Fcγ), fragment specific polyclonal antibody (Pierce Biotechnology Inc, Rockford, Ill.) diluted in 10 mM sodium acetate (pH 4.5) is directly immobilized across a CM5 research grade biosensor chip using a standard amine coupling kit according to manufacturer's instructions and procedures at 25 μg/ml. Unreacted moieties on the biosensor surface are blocked with ethanolamine. Modified carboxymethyl dextran surface in flowcell 2 and 4 is used as a reaction surface. Unmodified carboxymethyl dextran without goat anti-mouse IgG in flow cell 1 and 3 is used as the reference surface. For kinetic analysis, rate equations derived from the 1:1 Langmuir binding model are fitted simultaneously to association and dissociation phases of all eight injections (using global fit analysis) with the use of Biaevaluation 4.0.1 software. Purified antibodies or DVD-Ig are diluted in HEPES-buffered saline for capture across goat anti-mouse IgG specific reaction surfaces. Antibodies or DVD-Ig to be captured as a ligand (25 μg/ml) are injected over reaction matrices at a flow rate of 5 μl/min. The association and dissociation rate constants, kₒₙ (M⁻¹s⁻¹) and koff (s⁻¹) are determined under a continuous flow rate of 25 μl/min. Rate constants are derived by making kinetic binding measurements at different antigen concentrations ranging from 10-200 nM. The equilibrium dissociation constant (M) of the reaction between antibodies or DVD-Igs and the target antigen is then calculated from the kinetic rate constants by the following formula: KD=koff/kₒₙ. Binding is recorded as a function of time and kinetic rate constants are calculated.
# [2] = target: T2, MSP Receptor ECD-His tag (UniProt Q04912 25-957, limits assumed); assay: Biacore SPR
# T2 construct: extracellular domain; Bought reagent; also called RON; not shown: His tag
# [3] = target: T3, DLL ECD His tag (UniProt Q9NR61 27-529, limits assumed); assay: Biacore SPR
# T3 construct: extracellular domain; Bought reagent; also called DLL4; DLL-4; not shown: His tag
# [4] = target: T4, DLL4 ECD/His tag (R&D 1506-D4-050) (UniProt Q9NR61 27-529); assay: direct bind ELISA, DLL4 on plate; DLL4 VD C-term.; HC Short, LC Short
# T4 construct: extracellular domain; Bought antigen coated on the ELISA plate; not shown: His tag
# [5] = target: T5, ErbB3 (ErbB3/FC Chimera-His tag) (UniProt P21860 20-643, limits assumed); assay: SPR (Biacore); parent antibody
# T5 construct: extracellular domain
# Procedure: as §1
# [6] = target: T6, Placental GF (UniProt P49763-2 21-149, limits assumed); assay: Biacore SPR
# T6 construct: Bought reagent; also called PlGF; PLGF
# T6 sequence (looked up): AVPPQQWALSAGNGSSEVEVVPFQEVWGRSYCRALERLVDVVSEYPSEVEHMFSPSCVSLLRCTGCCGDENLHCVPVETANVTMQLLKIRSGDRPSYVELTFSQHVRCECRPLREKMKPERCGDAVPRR
# Procedure: as §1
# [7] = target: T7, IGF-2 (UniProt P01344 25-91); assay: Biacore SPR
# T7 construct: Bought reagent
# Procedure: as §1
# T1 sequence (P14210 32-728 limits assumed): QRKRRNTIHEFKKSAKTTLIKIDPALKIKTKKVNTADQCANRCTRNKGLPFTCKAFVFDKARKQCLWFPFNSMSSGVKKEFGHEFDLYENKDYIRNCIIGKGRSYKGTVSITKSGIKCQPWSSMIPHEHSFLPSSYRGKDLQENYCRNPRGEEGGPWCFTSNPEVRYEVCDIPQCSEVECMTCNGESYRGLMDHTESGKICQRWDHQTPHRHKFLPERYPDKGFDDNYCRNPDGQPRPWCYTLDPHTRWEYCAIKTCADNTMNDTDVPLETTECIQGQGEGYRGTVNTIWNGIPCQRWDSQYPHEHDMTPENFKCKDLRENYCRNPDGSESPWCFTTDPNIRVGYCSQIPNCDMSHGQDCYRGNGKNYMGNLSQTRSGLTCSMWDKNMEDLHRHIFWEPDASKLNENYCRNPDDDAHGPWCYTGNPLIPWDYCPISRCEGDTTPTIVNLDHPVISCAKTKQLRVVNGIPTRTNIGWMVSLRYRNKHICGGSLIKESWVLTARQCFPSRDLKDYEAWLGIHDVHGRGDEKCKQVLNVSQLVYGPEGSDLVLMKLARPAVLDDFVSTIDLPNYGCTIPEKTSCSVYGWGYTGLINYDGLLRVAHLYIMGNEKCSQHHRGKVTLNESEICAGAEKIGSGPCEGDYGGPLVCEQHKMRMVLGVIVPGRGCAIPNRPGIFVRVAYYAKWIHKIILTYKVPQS
binder,measurement,setting,value
B1,Kd,[1],0.31 nM
same,koff,[1],9.2e-05 s⁻¹
same,kon,[1],297000 M⁻¹ s⁻¹
same,Kd,[2],7.6 nM
same,koff,[2],0.00118 s⁻¹
same,kon,[2],156000 M⁻¹ s⁻¹
B2,Kd,[3],2.32 nM
same,koff,[3],0.000217 s⁻¹
same,kon,[3],93700 M⁻¹ s⁻¹
B3,EC50,[4],0.67 nM
B4,Kd,[5],0.15 nM
same,koff,[5],0.000175 s⁻¹
same,kon,[5],1.17e+06 M⁻¹ s⁻¹
B5,EC50,[4],13.9 nM
B6,Kd,[3],0.414 nM
same,koff,[3],0.000166 s⁻¹
same,kon,[3],400000 M⁻¹ s⁻¹
B7,EC50,[4],4.33 nM
B8,EC50,[4],1.77 nM
B9,Kd,[6],< 0.254 nM
same,koff,[6],0.00254 s⁻¹
same,kon,[6],> 1e+07 M⁻¹ s⁻¹
B10,Kd,[5],1.36 nM
same,koff,[5],0.000117 s⁻¹
same,kon,[5],86600 M⁻¹ s⁻¹
B11,EC50,[4],2.28 nM
B12,Kd,[7],< 0.0124 nM
same,koff,[7],< 1e-06 s⁻¹
same,kon,[7],80900 M⁻¹ s⁻¹
B13,Kd,[2],20.2 nM and 20.1 nM
same,koff,[2],0.000739 s⁻¹
same,kon,[2],36600 M⁻¹ s⁻¹
B14,EC50,[4],1.71 nM
B15,Kd,[6],0.0284 nM
same,koff,[6],0.000108 s⁻¹
same,kon,[6],3.8e+06 M⁻¹ s⁻¹
